Source: paper PMC10786891, “Massively parallel profiling of RNA-targeting CRISPR-Cas13d”

T1: EsCas13d, nuclease-dead (Eubacterium siraeum, UniProt B0MS50, R295A;H300A;R849A;H854A)
T1 sequence: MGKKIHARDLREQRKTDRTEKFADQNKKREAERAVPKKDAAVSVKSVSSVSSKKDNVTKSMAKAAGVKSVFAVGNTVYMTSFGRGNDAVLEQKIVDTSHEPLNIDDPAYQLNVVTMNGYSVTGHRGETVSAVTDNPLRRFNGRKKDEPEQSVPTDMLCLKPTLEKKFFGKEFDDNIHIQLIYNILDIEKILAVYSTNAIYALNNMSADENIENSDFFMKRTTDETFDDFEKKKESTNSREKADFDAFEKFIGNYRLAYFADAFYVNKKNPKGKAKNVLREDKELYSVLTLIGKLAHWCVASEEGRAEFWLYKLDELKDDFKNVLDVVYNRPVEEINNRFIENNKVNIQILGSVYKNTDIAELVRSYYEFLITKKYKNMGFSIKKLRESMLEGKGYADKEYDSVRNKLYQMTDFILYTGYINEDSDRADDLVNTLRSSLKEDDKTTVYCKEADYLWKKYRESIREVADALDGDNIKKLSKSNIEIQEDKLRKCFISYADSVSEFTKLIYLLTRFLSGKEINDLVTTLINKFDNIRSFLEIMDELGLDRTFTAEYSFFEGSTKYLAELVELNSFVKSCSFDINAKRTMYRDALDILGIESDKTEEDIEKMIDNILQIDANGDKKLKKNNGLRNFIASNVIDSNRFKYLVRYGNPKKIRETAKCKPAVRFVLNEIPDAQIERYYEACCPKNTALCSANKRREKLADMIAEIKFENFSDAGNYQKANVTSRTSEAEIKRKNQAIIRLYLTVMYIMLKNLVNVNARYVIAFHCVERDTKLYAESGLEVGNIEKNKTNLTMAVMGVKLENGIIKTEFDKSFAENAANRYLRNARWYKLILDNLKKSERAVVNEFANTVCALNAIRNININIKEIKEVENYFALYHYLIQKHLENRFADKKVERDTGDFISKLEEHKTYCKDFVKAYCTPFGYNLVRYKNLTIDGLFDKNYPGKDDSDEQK

B1: target 1 U3G,U19A (mixed)
RNA 1: CACCCGUGCAAAAAUGCAGGGGUCUAAAACUGAGCGGAUAACCUCUCUAUGG
RNA 2: GGGAAUGGAUCCACAUCUACGAAUUCGUACCAAAGAGAGGUUAUCCGCGCACCGAGAUCGGAAGAGCACACGU
B2: target 1 del4,del7 (mixed)
RNA 1: CACCCGUGCAAAAAUGCAGGGGUCUAAAACUGAGCGGAUAACCUCUCUAUGG
RNA 2: GGGAAUGGAUCCACAUCUACGAAUUCGUACCAUAGAGAGGUUAUCGUCACCGAGAUCGGAAGAGCACACGU
B3: target 2 MT 5'PFS CUU 3'PFS UCA (mixed)
RNA 1: CACCCGUGCAAAAUUGCAGGGGUCUAAAACCUUCUCCAAAUUGUUUCAUCCU
RNA 2: GGGAAUGGAUCCACAUCUACGAAUUCCUUAGGAUGAAACAAUUUGGAGAAGUCAAGAUCGGAAGAGCACACGU
B4: target 2 MT 5'PFS UUC 3'PFS AUA (mixed)
RNA 1: CACCCGUGCAAAAUUGCAGGGGUCUAAAACCUUCUCCAAAUUGUUUCAUCCU
RNA 2: GGGAAUGGAUCCACAUCUACGAAUUCUUCAGGAUGAAACAAUUUGGAGAAGAUAAGAUCGGAAGAGCACACGU
B5: target 2 MT 5'PFS AUG 3'PFS ACG (mixed)
RNA 1: CACCCGUGCAAAAUUGCAGGGGUCUAAAACCUUCUCCAAAUUGUUUCAUCCU
RNA 2: GGGAAUGGAUCCACAUCUACGAAUUCAUGAGGAUGAAACAAUUUGGAGAAGACGAGAUCGGAAGAGCACACGU
B6: target 2 MT 5'PFS GUA 3'PFS UUU (mixed)
RNA 1: CACCCGUGCAAAAUUGCAGGGGUCUAAAACCUUCUCCAAAUUGUUUCAUCCU
RNA 2: GGGAAUGGAUCCACAUCUACGAAUUCGUAAGGAUGAAACAAUUUGGAGAAGUUUAGAUCGGAAGAGCACACGU
B7: target 2 MT 5'PFS AGU 3'PFS AUU (mixed)
RNA 1: CACCCGUGCAAAAUUGCAGGGGUCUAAAACCUUCUCCAAAUUGUUUCAUCCU
RNA 2: GGGAAUGGAUCCACAUCUACGAAUUCAGUAGGAUGAAACAAUUUGGAGAAGAUUAGAUCGGAAGAGCACACGU
B8: target 2 MT 5'PFS AAG 3'PFS CAC (mixed)
RNA 1: CACCCGUGCAAAAUUGCAGGGGUCUAAAACCUUCUCCAAAUUGUUUCAUCCU
RNA 2: GGGAAUGGAUCCACAUCUACGAAUUCAAGAGGAUGAAACAAUUUGGAGAAGCACAGAUCGGAAGAGCACACGU
B9: target 2 MT 5'PFS GGU 3'PFS CUA (mixed)
RNA 1: CACCCGUGCAAAAUUGCAGGGGUCUAAAACCUUCUCCAAAUUGUUUCAUCCU
RNA 2: GGGAAUGGAUCCACAUCUACGAAUUCGGUAGGAUGAAACAAUUUGGAGAAGCUAAGAUCGGAAGAGCACACGU
B10: target 2 MT 5'PFS GUA 3'PFS UUA (mixed)
RNA 1: CACCCGUGCAAAAUUGCAGGGGUCUAAAACCUUCUCCAAAUUGUUUCAUCCU
RNA 2: GGGAAUGGAUCCACAUCUACGAAUUCGUAAGGAUGAAACAAUUUGGAGAAGUUAAGAUCGGAAGAGCACACGU
B11: target 2 MT 5'PFS AGU 3'PFS AUC (mixed)
RNA 1: CACCCGUGCAAAAUUGCAGGGGUCUAAAACCUUCUCCAAAUUGUUUCAUCCU
RNA 2: GGGAAUGGAUCCACAUCUACGAAUUCAGUAGGAUGAAACAAUUUGGAGAAGAUCAGAUCGGAAGAGCACACGU
B12: target 2 MT 5'PFS AAG 3'PFS CAG (mixed)
RNA 1: CACCCGUGCAAAAUUGCAGGGGUCUAAAACCUUCUCCAAAUUGUUUCAUCCU
RNA 2: GGGAAUGGAUCCACAUCUACGAAUUCAAGAGGAUGAAACAAUUUGGAGAAGCAGAGAUCGGAAGAGCACACGU
B13: target 2 MT 5'PFS CUG 3'PFS CCU (mixed)
RNA 1: CACCCGUGCAAAAUUGCAGGGGUCUAAAACCUUCUCCAAAUUGUUUCAUCCU
RNA 2: GGGAAUGGAUCCACAUCUACGAAUUCCUGAGGAUGAAACAAUUUGGAGAAGCCUAGAUCGGAAGAGCACACGU
B14: target 2 MT 5'PFS CUG 3'PFS CCG (mixed)
RNA 1: CACCCGUGCAAAAUUGCAGGGGUCUAAAACCUUCUCCAAAUUGUUUCAUCCU
RNA 2: GGGAAUGGAUCCACAUCUACGAAUUCCUGAGGAUGAAACAAUUUGGAGAAGCCGAGAUCGGAAGAGCACACGU
B15: target 2 MT 5'PFS CGA 3'PFS UCA (mixed)
RNA 1: CACCCGUGCAAAAUUGCAGGGGUCUAAAACCUUCUCCAAAUUGUUUCAUCCU
RNA 2: GGGAAUGGAUCCACAUCUACGAAUUCCGAAGGAUGAAACAAUUUGGAGAAGUCAAGAUCGGAAGAGCACACGU
B16: target 2 MT 5'PFS AGG 3'PFS ACG (mixed)
RNA 1: CACCCGUGCAAAAUUGCAGGGGUCUAAAACCUUCUCCAAAUUGUUUCAUCCU
RNA 2: GGGAAUGGAUCCACAUCUACGAAUUCAGGAGGAUGAAACAAUUUGGAGAAGACGAGAUCGGAAGAGCACACGU
B17: target 2 MT 5'PFS AAG 3'PFS CAU (mixed)
RNA 1: CACCCGUGCAAAAUUGCAGGGGUCUAAAACCUUCUCCAAAUUGUUUCAUCCU
RNA 2: GGGAAUGGAUCCACAUCUACGAAUUCAAGAGGAUGAAACAAUUUGGAGAAGCAUAGAUCGGAAGAGCACACGU
B18: target 2 MT 5'PFS CUU 3'PFS UCU (mixed)
RNA 1: CACCCGUGCAAAAUUGCAGGGGUCUAAAACCUUCUCCAAAUUGUUUCAUCCU
RNA 2: GGGAAUGGAUCCACAUCUACGAAUUCCUUAGGAUGAAACAAUUUGGAGAAGUCUAGAUCGGAAGAGCACACGU
B19: target 2 MT 5'PFS AGU 3'PFS AUA (mixed)
RNA 1: CACCCGUGCAAAAUUGCAGGGGUCUAAAACCUUCUCCAAAUUGUUUCAUCCU
RNA 2: GGGAAUGGAUCCACAUCUACGAAUUCAGUAGGAUGAAACAAUUUGGAGAAGAUAAGAUCGGAAGAGCACACGU
B20: target 2 MT 5'PFS GGU 3'PFS CUG (mixed)
RNA 1: CACCCGUGCAAAAUUGCAGGGGUCUAAAACCUUCUCCAAAUUGUUUCAUCCU
RNA 2: GGGAAUGGAUCCACAUCUACGAAUUCGGUAGGAUGAAACAAUUUGGAGAAGCUGAGAUCGGAAGAGCACACGU
B21: target 2 MT 5'PFS GGU 3'PFS CUC (mixed)
RNA 1: CACCCGUGCAAAAUUGCAGGGGUCUAAAACCUUCUCCAAAUUGUUUCAUCCU
RNA 2: GGGAAUGGAUCCACAUCUACGAAUUCGGUAGGAUGAAACAAUUUGGAGAAGCUCAGAUCGGAAGAGCACACGU
B22: target 2 MT 5'PFS CUU 3'PFS UCG (mixed)
RNA 1: CACCCGUGCAAAAUUGCAGGGGUCUAAAACCUUCUCCAAAUUGUUUCAUCCU
RNA 2: GGGAAUGGAUCCACAUCUACGAAUUCCUUAGGAUGAAACAAUUUGGAGAAGUCGAGAUCGGAAGAGCACACGU
B23: target 2 MT 5'PFS GUA 3'PFS UUC (mixed)
RNA 1: CACCCGUGCAAAAUUGCAGGGGUCUAAAACCUUCUCCAAAUUGUUUCAUCCU
RNA 2: GGGAAUGGAUCCACAUCUACGAAUUCGUAAGGAUGAAACAAUUUGGAGAAGUUCAGAUCGGAAGAGCACACGU
B24: target 2 MT 5'PFS CUU 3'PFS UCC (mixed)
RNA 1: CACCCGUGCAAAAUUGCAGGGGUCUAAAACCUUCUCCAAAUUGUUUCAUCCU
RNA 2: GGGAAUGGAUCCACAUCUACGAAUUCCUUAGGAUGAAACAAUUUGGAGAAGUCCAGAUCGGAAGAGCACACGU

biological target: T1, EsCas13d, nuclease-dead; assay: crRNA (strand 1, pre-loaded); Mg2+; 40 mM Tris-HCl pH 7.5, 150 mM NaCl, 6 mM MgCl2, 1 mM DTT, 0.1% Tween-20, 0.2 mg/ml BSA; 25 C; 10 min per concentration, then washed; details: tags: His6-TwinStrep-SUMO cleaved; N-terminal SNAP kept (SNAP-Surface 488); label: 3' end held by stalled T7 RNA polymerase

Point of comparison: B3, Kd 4.8 ± 0.5 nM. Against it:
- B1 — 9.4-fold higher, 45 ± 10 nM
- B2 — within error, 5.34 ± 0.24 nM
- B4 — 3.3-fold higher, 16 ± 5 nM
- B5 — 2.6-fold higher, 12.6 ± 2.1 nM
- B6 — 13-fold higher, 62 ± 18 nM
- B7 — 2.5-fold higher, 12.1 ± 2.1 nM
- B8 — 1.7-fold lower, 2.9 ± 1 nM
- B9 — 2.6-fold higher, 12.6 ± 1.4 nM
- B10 — 4.6-fold higher, 22 ± 4 nM
- B11 — 3.5-fold higher, 16.7 ± 3.2 nM
- B12 — within error, 4.2 ± 0.7 nM
- B13 — 12-fold higher, 57 ± 22 nM
- B14 — within 1.5-fold, 4.06 ± 0.2 nM
- B15 — 5.4-fold higher, ~26 nM
- B16 — within 1.5-fold, 6.7 ± 0.6 nM
- B17 — within 1.5-fold, 3.4 ± 0.5 nM
- B18 — 1.7-fold higher, 8.1 ± 0.8 nM
- B19 — 2.1-fold higher, 10.3 ± 1.5 nM
- B20 — 2.9-fold higher, 14 ± 1.3 nM
- B21 — 3.7-fold higher, 17.8 ± 1.9 nM
- B22 — within error, 4.6 ± 0.4 nM
- B23 — 8.8-fold higher, 42 ± 11 nM
- B24 — 1.7-fold higher, 8.2 ± 0.5 nM
